The text below walks through data of PMC6472409, “Dishevelled-3 conformation dynamics analyzed by FRET-based biosensors reveals a key role of casein kinase 1” (Nature Communications, 2019).

The test system of one assay is Wnt/β-catenin pathway. Description: Dual Luciferase TopFlash/Renilla Reporter Assay. In kind it is cell-based, human. Particulars: Fig 8d. As for the experimental part:
Cells were transfected 24 h after seeding with 0.1 μg of Super8X TopFlash construct, 0.1 μg of Renilla luciferase construct, and 0.1 μg of corresponding plasmids per well for 6 h in a 24-well plate. As for the ECFP-DVL3 FIII wt stable cell lines, transfection was followed by 4 h induction of tetracycline (1 µg/ml) and 8 h treatment of CM:DMEM (1:1 ratio). For performing this assay, Promega Dual Luciferase assay kit (Promega, #E1910) was used according to the manufacturer’s instructions. Luminescence was measured by a Hidex Bioscan Plate Chameleon Luminometer. Results are depicted as the ratio of TopFlash and Renilla signal (TopFlash fold induction), which was normalized for each experiment to certain control column (normalized TopFlash fold induction). Data were analyzed by MS Excel 2007 and GraphPad Prism 6 and results were shown as the means ± S.D. (number of experiments indicated ad hoc).
On the technique in general: Reporter assays use an easily measured gene product as a stand-in for the process of interest.

In assay [1] the test system is DVL3 membrane recruitment by FZD6 in HEK293 cells. Nature of the assay: FZD6-dependent membrane recruitment of DVL3, immunofluorescence. The format is cell-based, human. On the set-up: key to Non-recruited (DVL3 membrane recruitment): number of cells out of 100 positive cells scored. Particulars: Fig 8c. From the text: First, we analyzed the preferred subcellular localization of DVL3 (as introduced in Fig. 2c)[10],[14]. […] Next, we investigated if DVL3 conformation correlates with the capacity of DVL3 to be recruited by FZD6, a key Wnt receptor, to the plasma membrane. For this purpose, we co-expressed FZD6 and analyzed membrane recruitment of DVL3 in FZD6-positive cells by immunofluorescence. Individual cells were categorized as: not recruited (Fig. 8b, no DVL3 in the membrane), partially recruited (clear membrane as well as cytoplasmic localization), and fully recruited (predominantly plasma membrane localization, Fig. 8c, left). […] In the last readout we analyzed the capacity of DVL3 to activate downstream Wnt/β-catenin pathway monitored by TopFlash reporter assay (Fig. 8d). […] On the other hand, under conditions that favor the open conformation both activation as well as inhibition of the Wnt/β-catenin pathway was evident.
For immunofluorescence, cells were seeded (40,000 per well) on 24-well plates with gelatin-coated coverslips and transfected, as indicated, with 0.1 μg of each corresponding plasmid (0.3 μg of mCherry-FZD6) for 6 h. For western blotting and Dual Luciferase TopFlash/Renilla Reporter Assay, cells were seeded (60,000 per well) directly on 24-well plates with 0.1 μg of each corresponding plasmid (if not indicated otherwise) for 6 h. For coimmunoprecipitation, cells were seeded (4.4 × 10^6) on 10-cm dishes and transfected with 1 μg of each corresponding plasmid. The next day after seeding, cells were transfected using polyethyleneimine (PEI) in a stoichiometry of 6 μl of PEI per 1 μg of DNA for 6 h and were harvested 24 h after transfection. The following plasmids used in HEK293 cells have been described previously: FLAG-DVL3 wt[47], CK1ϵ wt[48], mCherry-FZD6 (ref. [37]), and dominant-negative CK1ϵ P3 (ref. [33]). The ECFP-DVL3 wt plasmid was made by Gateway Technology (via LR recombination according to the manufacturer’s instructions; Thermo Fisher Scientific, #11791020) from the donor plasmid pDONR221 DVL3 (DNASU, #FLH178665.01x) and the destination plasmid pdECFP (LMBP, #4548). The HA-DVL3 wt plasmid was made by Gateway Technology from the donor plasmid pDONR221 DVL3 (DNASU, #FLH178665.01x) and the destination plasmid pcDNA3.1 N-term HA (gift from Erich Nigg).
Cells were seeded on gelatin-coated coverslips in 24-well plates and were transfected the next day. Cells were fixed 24 h later in fresh 4% paraformaldehyde, permeabilized with 0.5% Triton X-100, blocked with PBS/BSA/Triton/Azide buffer (PBTA) [3% (wt/vol) BSA, 0.25% Triton, 0.01% NaN3] for 1 h, and incubated overnight with primary antibodies (in dilution 1:500) in PBTA at 4 °C. The next day, the coverslips were washed in PBS and incubated with secondary antibodies conjugated to Alexa Fluor 488 (Invitrogen A11001) or/and Alexa Fluor 594 (Invitrogen A11058) (all in dilution 1:1000), washed with PBS [in case of samples containing FLAG-DVL3 WT and derived variants stained with DAPI (1:5000)], and all coverslips were mounted on microscopic slides. Cells were then visualized on an Olympus IX51 fluorescent microscope using ×40 air or ×100 oil objectives and/or an Olympus Fluoview 500 confocal laser scanning microscope IX71 using ×100 oil objective. One hundred positive cells per experiment (n = 3) were analyzed and scored according to their phenotype into two/three categories (punctae/even); or non-recruited/partially/fully recruited for FZD6-dependent recruitment of DVL3. The antibodies used were as follows: anti-FLAG M2 (Sigma-Aldrich, #F1804), anti-DVL3 (Santa Cruz, #sc-8027), anti-CK1ɛ (Santa Cruz, #sc-6471), anti-RFP (Chromotek, #5h9) and anti-GFP (Fitzgerald, #20R-GR-011).

Numbering of substitutions follows the chain as printed. Numbers in names are those of the source.

B1: DVL3 S268A/S311A (protein, UniProt Q92997 1-716, looked up, variant S268A S311A)
Segment polarity protein …: MGETKIIYHLDGQETPYLVKLPLPAERVTLADFKGVLQRPSYKFFFKSMDDDFGVVKEEISDDNAKLPCFNGRVVSWLVSAEGSHPDPAPFCADNPSELPPPMERTGGIGDSRPPSFHPHAGGGSQENLDNDTETDSLVSAQRERPRRRDGPEHATRLNGTAKGERRREPGGYDSSSTLMSSELETTSFFDSDEDDSTSRFSSSTEQSSASRLMRRHKRRRRKQKVSRIERSSSFSSITDSTMSLNIITVTLNMEKYNFLGISIVGQANERGDGGIYIGSIMKGGAVAADGRIEPGDMLLQVNEINFENMANDDAVRVLREIVHKPGPITLTVAKCWDPSPRGCFTLPRSEPIRPIDPAAWVSHTAAMTGTFPAYGMSPSLSTITSTSSSITSSIPDTERLDDFHLSIHSDMAAIVKAMASPESGLEVRDRMWLKITIPNAFIGSDVVDWLYHNVEGFTDRREARKYASNLLKAGFIRHTVNKITFSEQCYYIFGDLCGNMANLSLHDHDGSSGASDQDTLAPLPHPGAAPWPMAFPYQYPPPPHPYNPHPGFPELGYSYGGGSASSQHSEGSRSSGSNRSGSDRRKEKDPKAGDSKSGGSGSESDHTTRSSLRGPRERAPSERSGPAASEHSHRSHHSLASSLRSHHTHPSYGPPGVPPLYGPPMLMMPPPPAAMGPPGAPPGRDLASVPPELTASRQSFRMAMGNPSEFFVDVM
In the case of B1, the “TopFlash relative to DVL3 wt (= 1)” value in the assay on Wnt/β-catenin pathway (replicate of grid row r4) is reported as 0.2512; in the assay on Wnt/β-catenin pathway (replicate of grid row r5), 0.4095; in the assay on Wnt/β-catenin pathway (replicate of grid row r6), 0.2391; in the assay on Wnt/β-catenin pathway (replicate of grid row r7) it was 0.3021; in the assay on Wnt/β-catenin pathway (replicate of grid row r8) it was 0.4946; with Wnt/β-catenin pathway (replicate of grid row r9), 0.4126. Besides, the “TopFlash relative to DVL3 wt (= 1)” value in the assay with Wnt/β-catenin pathway (replicate of grid row r10) was 0.6059; in the assay on Wnt/β-catenin pathway (replicate of grid row r11) it was 0.4276; with Wnt/β-catenin pathway (replicate of grid row r12), 0.421; in the assay with Wnt/β-catenin pathway (replicate of grid row r13), 0.43; in the assay with Wnt/β-catenin pathway (replicate of grid row r14) it was 0.3266. For the same molecule, the “Non-recruited (DVL3 membrane recruitment)” value came out at 79 in assay [1] (exp1), 54 in assay [1] (exp2) and 68 in assay [1] (exp3). The “Partially recruited (DVL3 membrane recruitment)” value in assay [1] (exp1) is 19; in assay [1] (exp2) it was 35; in assay [1] (exp3) it was 16. In addition, the results for the “Fully recruited (DVL3 membrane recruitment)” value in assay [1] (exp2) and in assay [1] (exp3) were 11 and 16, respectively.

B2: DVL3 S268E/S311E (protein, UniProt Q92997 1-716, looked up, variant S268E S311E)
Segment polarity protein …: B1 Segment polarity protein … with A268E, A311E
Take B2: the “TopFlash relative to DVL3 wt (= 1)” value is 0.8175 in the assay on Wnt/β-catenin pathway (replicate of grid row r4); 1.687 in the assay on Wnt/β-catenin pathway (replicate of grid row r5); 1.081 with Wnt/β-catenin pathway (replicate of grid row r6); 0.9973 in the assay on Wnt/β-catenin pathway (replicate of grid row r7); 0.619 in the assay on Wnt/β-catenin pathway (replicate of grid row r8); 0.5939 in the assay with Wnt/β-catenin pathway (replicate of grid row r9). The “TopFlash relative to DVL3 wt (= 1)” value in the assay on Wnt/β-catenin pathway (replicate of grid row r10) stood at 0.8497; in the assay on Wnt/β-catenin pathway (replicate of grid row r11) it was 1.052; in the assay with Wnt/β-catenin pathway (replicate of grid row r12), 1.009; in the assay with Wnt/β-catenin pathway (replicate of grid row r13), 1.108; with Wnt/β-catenin pathway (replicate of grid row r14), 1.265. Besides, the results for the “Fully recruited (DVL3 membrane recruitment)” value in assay [1] (exp1), in assay [1] (exp2) and in assay [1] (exp3) were 11, 20 and 10, respectively. Further, the “Non-recruited (DVL3 membrane recruitment)” value in assay [1] (exp1) was 52; in assay [1] (exp2) it was 49; in assay [1] (exp3), 60. The “Partially recruited (DVL3 membrane recruitment)” value in assay [1] (exp1) came out at 37; in assay [1] (exp2), 31; in assay [1] (exp3) it was 30.
